Results: publication PMC8766471, “Mutations affecting the N-terminal domains of SHANK3 point to different pathomechanisms in neurodevelopmental disorders” (Scientific Reports, 2022)

B1: Shank3 N-terminus (SPN + Ank domains, residues 1-339), WT, mRFP-tagged [rat] / δ-catenin, GFP-tagged [mouse] (parent complex)
chain 1: MDGPGASAVVVRVGIPDLQQTKCLRLDPTAPVWAAKQRVLCALNHSLQDALNYGLFQPPSRGRAGKFLDEERLLQDYPPNLDTPLPYLEFRYKRRVYAQNLIDDKQFAKLHTKANLKKFMDYVQLHSTDKVARLLDKGLDPNFHDPDSGECPLSLAAQLDNATDLLKVLRNGGAHLDFRTRDGLTAVHCATRQRNAGALTTLLDLGASPDYKDSRGLTPLYHSALGGGDALCCELLLHDHAQLGTTDENGWQEIHQACRFGHVQHLEHLLFYGANMGAQNASGNTALHICALYNQESCARVLLFRGANKDVRNYNSQTAFQVAIIAGNFELAEVIKTHK
chain 2: MFARKQSGAAPFGAMPVPDQPPSASEKNSSLSPGLNTSNGDGSETETTSAILASVKEQELQFERLTRELEAERQIVASQLERCKLGSETGSMSSISSAGEQFHWQTQDGQKDIEDELTTGLELVDSCIRSLQESGILDPQDYSTSERPSLLSQSALQLNSKPEGSFQYPASYHSNQTLALGDTAPSQLPARSTQARAAGQSFSQGTTGRAGHLAGSEPAPPPPPPREPFAPSLGSAFHLPDAPPAAAALYYSSSTLPAPPRGGSPLTTTQGGSPTKLQRGGSAPEGAAYAAPRGSSPKQSPSRLAKSYSTSSPINIVVSSAGLSPIRVTSPPTVQSTISSSPIHQLSSTIGTYATLSPTKRLVHASEQYSKHSQELYATATLQRPGSLAAGSRASYSSQHGHLAPELRALQSPEHHIDPIYEDRVYQKPPMRSLSQSQGDPLPPAHTGTFRTSTAPSSPGVDSVPLQRTGSQHGPQNAAAATFQRASYAAGPASNYADPYRQLQYCASVDSPYSKSGPALPPEGTLARSPSIDSIQKDPREFGWRDPELPEVIQMLQHQFPSVQSNAAAYLQHLCFGDNKIKAEIRRQGGIQLLVDLLDHRMTEVHRSACGALRNLVYGKANDDNKIALKNCGGIPALVRLLRKTTDLEIRELVTGVLWNLSSCDALKMPIIQDALAVLTNAVIIPHSGWENSPLQDDRKIQLHSSQVLRNATGCLRNVSSAGEEARRRMRECDGLTDALLYVIQSALGSSEIDSKTVENCVCILRNLSYRLAAETSQGQHMGTDELDGLLCGETNGKDTESSGCWGKKKKKKKSQDQWDGVGPLPDCAEPPKGIQMLWHPSIVKPYLTLLSECSNPDTLEGAAGALQNLAAGSWKGWAEDVAGMAYALRSLPEGAPCLPQWSVYIRAAVRKEKGLPILVELLRIDNDRVVCAVATALRNMALDVRNKELIGKYAMRDLVHRLPGGNNSNNSGSKAMSDDTVTAVCCTLHEVITKNMENAKALRDAGGIEKLVGISKSKGDKHSPKVVKAASQVLNSMWQYRDLRSLYKKDGWSQYHFVASSSTIERDRQRPYSSSRTPSISPVRVSPNNRSASAPASPREMISLKERKTDYESAGNNATYHGTKGEHTSRKDTMTAQNTGVSTLYRNSYGAPAEDIKQNQVSTQPVPQEPSRKDYETYQPFPNSTRNYDESFFEDQVHHRPPASEYTMHLGLKSTGNYVDFYSAARPYSELNYETSHYPASPDSWV

Variants of: B1
Assay: co-immunoprecipitation (mRFP-trap) with Western blot quantification; coexpressed in 293 T cells; three independent experiments; read off a plot

Row | Variant | response
1 | chain 1 Q317R | ~0.14
2 | chain 1 P141A | ~0.022
3 | chain 1 L270M | ~0.066
4 | chain 1 Q106P | ~0.07
5 | chain 1 G250C | ~0.05
6 | chain 1 Q256H | ~0.05
7 | chain 1 Y272C | ~0.068
8 | chain 1 T337S | ~0.092
9 | chain 1 D69G | ~0.13
